Experimental data published in US20110123533A1.
One block for each molecule: values may come before it.

How the values were obtained:
[1] = biological target: T1, CD133 (prominin) (human) (UniProt O43490); experiment: ELISA on membrane fraction of Caco-2 cells
T1 sequence (glycosylated (the AC133 epitope is known to be glycosylated), looked up): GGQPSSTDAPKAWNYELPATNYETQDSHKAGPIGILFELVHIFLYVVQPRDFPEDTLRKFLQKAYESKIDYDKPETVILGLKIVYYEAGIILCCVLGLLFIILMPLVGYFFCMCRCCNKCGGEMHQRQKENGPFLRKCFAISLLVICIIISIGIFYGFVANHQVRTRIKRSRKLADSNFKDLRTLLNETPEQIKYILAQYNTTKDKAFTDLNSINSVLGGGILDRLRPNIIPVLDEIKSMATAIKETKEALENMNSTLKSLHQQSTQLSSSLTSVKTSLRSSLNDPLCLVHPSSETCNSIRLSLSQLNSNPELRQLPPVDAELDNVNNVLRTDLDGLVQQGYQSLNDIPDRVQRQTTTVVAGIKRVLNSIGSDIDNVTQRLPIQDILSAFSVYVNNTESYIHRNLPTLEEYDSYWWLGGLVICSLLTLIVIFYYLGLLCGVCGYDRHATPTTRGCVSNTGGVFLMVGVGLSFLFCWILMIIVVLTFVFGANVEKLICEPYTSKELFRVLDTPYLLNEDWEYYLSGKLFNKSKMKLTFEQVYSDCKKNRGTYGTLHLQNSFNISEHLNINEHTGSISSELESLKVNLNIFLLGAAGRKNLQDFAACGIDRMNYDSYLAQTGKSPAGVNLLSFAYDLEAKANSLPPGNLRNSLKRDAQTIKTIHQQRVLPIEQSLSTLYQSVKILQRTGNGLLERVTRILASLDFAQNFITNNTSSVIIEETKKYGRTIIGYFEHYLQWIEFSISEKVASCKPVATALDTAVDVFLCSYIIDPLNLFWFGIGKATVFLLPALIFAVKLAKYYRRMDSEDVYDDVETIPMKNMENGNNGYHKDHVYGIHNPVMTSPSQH

[2] = biological target: T1, CD133 (prominin) (human); experiment: ELISA on membrane fraction from Caco-2 cells
[3] = biological target: T1, CD133 (prominin) (human); experiment: ELISA on plasma membrane fraction of Caco-2 cells; relative equilibrium constant

fold lower relative binding affinity than anti-CD133 monoclonal antibody [1]: 2 fold | fold lower affinity than the monoclonal antibody from which the scFv was derived [2]: 3 fold | Kd [3]: 155 nM
Molecule: scFv-AC133

Kd [3]: 83 nM
B1: AC133 mouse monoclonal antibody purified from hybridoma (antibody, from another filing, V domains shown)
VH: QVQLQQSGAELVRPGASVKLSCKASGYTFSDFEMHWVKQTPVHGLEWIGDIDPGTGDTAYNLKFKGKATLTTDKSSSTAYMELRSLTSEDSAVYYCTLGAFVYWGQGTLVTVSA
VL: DVVVTQTPLSLPVSFGDQVSISCRSSQSLANSYGNTYLSWYLHKPGQSPQLLIYGISNRFSGVPDRFSGSGSGTDFTLKISTIKPEDLGMYYCLQGTHQPYTFGGGTKLEIKR
